# Measurements taken from the supplement of paper PMC10567573.
# ± gives the standard deviation.
# Experiment: protein stability index of a GFP-peptide fusion (GPS, HEK-293T) (PSI 1-6); higher = more stable
# Conditions: c terminus: a fixed tail appended
# 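Note: 24-mer peptide tiles fused after GFP, lentivirally expressed, FACS-sorted into six equal bins by GFP/DsRed ratio, decoded by Illumina sequencing, PSI is the read-weighted mean bin number.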
Sequence,protein stability index (treatment: DMSO),"protein stability index (treatment: MLN4924 1 uM, 8 h)"
AADDFRLKYENELALRQGVEADIN [KRT15],4.77 ± 0.29,4.64 ± 0.23
AADIVNFLTVGSVLQMWHIVDKCT [ZBTB22],3.24 ± 0.88,3.65 ± 0.2
AAESPDPPQSPQGASSLPTTMNYP [MAGEA3],5.23 ± 0.13,5.3 ± 0.1
AAFCPQLDDSTVARELAITDSEHS [RETREG3],5.26 ± 0.16,5.14 ± 0.16
AALNALQPPEFRNESSLASTLKTL [VMA21],3.44 ± 0.2,3.51 ± 0.18
AAQPMTKKRKVDGLSTEAEQPFIP [PRAME],4.43 ± 0.21,4.55 ± 0.27
AASPGEAPAASEGAAAPATPTPVA [SNAP91],5.38 ± 0.15,5.53 ± 0.25
AAVAQKPRSHFTTPAPMSSAWKTV [MYBL2],3.06 ± 0.14,2.97 ± 0.22
ACIAYIRLTQYMDGSGMPKTMQSE [CAMK2D],2.88 ± 0.5,2.55 ± 0.59
ADAAEDEEVDVTSVDPIAAFCSSD [RBBP5],5.57 ± 0.2,5.55 ± 0.2
ADGVKPQTNSTKNSAAATSPKGTL [CAMK2B],5.24 ± 0.14,5.4 ± 0.3
ADIKQYIGPPSAAAIFKIYLSCLE [TRIP13],2.19 ± 0.4,2.27 ± 0.22
ADIMISFVRGDHRDNSPFDGPGGN [MMP1],2.96 ± 0.31,3.07 ± 0.36
ADSLASKVTRLKSLALDIDRDAED [BET1L],5.3 ± 0.2,5.21 ± 0.21
AEASHYNSDLNNLLFCCQCVDVVF [RHOBTB3],2.52 ± 0.49,2.54 ± 0.54
AEGARPLRENVPRVIMIVTDGRPQ [MATN2],2.83 ± 0.61,3.56 ± 0.35
AGNCPECGTPLRKSNFRVQLFEDP [MNAT1],3.62 ± 0.33,4.08 ± 0.2
AGNNEHCGNIKAPSLQAWNDAPCD [CD207],4.75 ± 0.33,4.71 ± 0.13
AGSEQKGQIIKDIDSGSPAEEAGL [PDZK1],5.61 ± 0.11,5.26 ± 0.27
AIILSSCLLGLGSLVLILSLSYTV [SLC2A12],3.06 ± 0.4,3.26 ± 0.097
AIKCSPSLHVDDRERMELLEEAKK [RIPK4],5.12 ± 0.65,5.28 ± 0.33
AITTDCLQILAYGNQESKLIILAS [CTNNB1],2.85 ± 0.64,2.81 ± 0.84

Sequence,protein stability index (treatment: DMSO),"protein stability index (treatment: MLN4924 1 uM, 8 h)"
AKEVTIAKADTTSTVTPVPGQEKG [EHMT1],5.36 ± 0.28,5.52 ± 0.2
AKQRAKEAQERELRKREKAEEKER [LRRC59],5.45 ± 0.14,5.52 ± 0.36
ALEEADKMFLRTREPALDGGFQMH [EID1],3.75 ± 0.066,3.64 ± 0.42
ALKDSLRPKLSEEQQRIIAILLDA [VDR],2.44 ± 0.2,2.44 ± 0.41
ALPENEFKKQIWLLFEYPESSSPA [KCNA4],2.45 ± 0.16,2.44 ± 0.5
ALQNKDTYEPFCKVPVITSSKEEQ [KCTD10],4.4 ± 0.14,4.5 ± 0.16
ALQSRAAQRHRGSAKDGGPQPPDA [PLEKHN1],4.57 ± 0.49,4.96 ± 0.34
ALRNFACLTTGDVIAINYNEKIYE [UFD1],2.21 ± 0.49,2.29 ± 0.46
ALVAAGGAPEDDEEDDGRGRGLLR [DENND6A],5.5 ± 0.15,5.33 ± 0.14
ALVVPKGNTAVSVLMLLVALLFTG [SCAMP3],2.98 ± 0.75,2.62 ± 0.45
AMLKALLGSKHKVCMDLRANLKQV [TNNI2],2.42 ± 0.18,2.33 ± 0.43
AMVEFVKLLNRCCHLFSTYVASHK [ACBD3],2.97 ± 0.19,2.85 ± 0.16
APKGKGRKPAAGAQSAGTQQVAAV [BRD3],4.98 ± 0.33,5.04 ± 0.24
AQEEPWEKKESLGAAQEALSIQLQ [ZNF232],4.91 ± 0.4,5 ± 0.15
AQLRDAVQSLQLSPRTRGSWSQPQ [RASAL3],3.65 ± 0.15,3.6 ± 0.35
ARRDAKKLVRSPSGLRMVPEHRAF [ZFYVE21],3.11 ± 0.31,3.56 ± 0.17
ARSPSGPSGSLENGTKADGKDAKT [TRIM29],5.4 ± 0.19,5.54 ± 0.094
ARTCAKQNINAPAPATTSSWEVVR [C22orf31],3.04 ± 0.4,3.22 ± 0.32
ARYGHLDVVEYLVDRCGASVEAGG [FEM1A],2.81 ± 0.16,2.98 ± 0.43
ASGLGLEITTQFLIYASYFALIAV [SLC19A2],3.26 ± 0.26,3.13 ± 0.47
ASGQGPMCNVKAPLGSPSPRPRRA [ADAMTS4],4.88 ± 0.29,5.13 ± 0.15
ASKDPREVREARDHKEPKEEINKN [EHMT1],5.5 ± 0.2,5.66 ± 0.29

Sequence,protein stability index (treatment: DMSO),"protein stability index (treatment: MLN4924 1 uM, 8 h)"
ASNRIIGAKDHASIQMNVAEVSWE [RPS21],3.63 ± 0.44,3.63 ± 1.4
ATGMFLQYTVPGTEGVTQLKLTVV [ZFYVE21],3.29 ± 0.56,2.9 ± 0.46
ATGPMGMRGFKGDRGPKGEKGEKG [SCARA5],5.22 ± 0.24,5.43 ± 0.34
ATPEQGLSAFYLSYFDMLYPEDSS [SPDEF],2.75 ± 0.48,2.8 ± 0.41
ATYRSLLEGQDAKMIGFPSSAGSV [KRT13],3.22 ± 0.4,3.54 ± 0.24
AVNLIESGACGAFVHGLEDEMYEV [INTS4],3.41 ± 0.24,3.45 ± 0.33
AVPTDEARAFAEKNGLSFIETSAL [RAB11A],2.9 ± 0.34,3.37 ± 0.52
AVVQLYLALPPGAEHWTKEHCGAV [WAS],3.03 ± 0.59,2.71 ± 0.31
AVVVLDQGSRHWQKLREESAARVV [DUSP5],2.85 ± 0.34,2.72 ± 0.23
AWPFYKPVDAEALELHDYHDIIKH [BRD3],3.04 ± 0.17,3.24 ± 0.35
AYRGNCKDVSRCVAERKYTQEQAR [SMOC2],3.06 ± 0.19,3.38 ± 0.46
CCPTSREAAVEALELLGATYVDKK [FEM1A],4.28 ± 0.06,4.3 ± 0.049
CETVTCCLFSERDAAGAPRDASDP [SMAD6],4.49 ± 0.25,4.62 ± 0.12
CFKGELPLRAVHINLEEKEKQIRS [PLEKHN1],3.95 ± 0.18,3.96 ± 0.33
CGSFQVTTGLQVPSAVRCLQKRGS [FSD1],2.96 ± 0.2,2.8 ± 0.17
CHEDVEALAAIYEEKEAWYREESD [DAPK3],5.1 ± 0.22,5.12 ± 0.62
CKDSESNKHLCYVFDSEKCVSIPD [GULP1],3.27 ± 0.11,3.41 ± 0.35
CLGQLNLEQRSESVRRTRSKIGFG [SMAD6],3.06 ± 0.25,3.1 ± 0.35
CLMIAAYKGHTDVVRYLLEQRADP [FEM1B],2.27 ± 0.14,2.35 ± 0.17
CLRKYGNANVWKYFTDLFDYLPLT [PPP2CA],2.4 ± 0.57,2 ± 0.31
CMYEHGEDTHQSPEPEDEPGGPGA [RSPH3],5.42 ± 0.29,5.51 ± 0.17
